Like-named read-outs stand apart in the source and are kept apart here.
Columns and labels:
Assay in all cases: BLI
[1] = target: Bacteriophage Sf6, whole virions (bacteriophage Sf6)
[2] = target: Bacteriophage Sf6, whole virions (bacteriophage Sf6); remark: listed apart in the source
[3] = target: Bacteriophage Sf6, whole virions (bacteriophage Sf6); remark: listed apart in the source
[4] = target: Bacteriophage Sf6, whole virions (bacteriophage Sf6); remark: listed apart in the source

**Q.** How did the Kd [1] turn out when “OmpA-TM_(S.flex), transmembrane domain of S. flexneri outer membrane protein A (domain or fragment)” was run?
**A.** Its Kd is 89.9 nM.

**Q.** And the Kd [2]?
**A.** Its Kd is 36 nM.

**Q.** What about the Kd [3] of the same substance?
**A.** The Kd was 82.3 nM.

**Q.** And the Kd [4]?
**A.** Its Kd is 99.6 nM.

**Q.** With “S. flexneri OmpA-TM N155E (domain or fragment)” as the substance, how does the Kd [2] read?
**A.** Its Kd is 6.9 to 65.4 nM.

**Q.** “OmpA-TM_(E.coli), transmembrane domain of E. coli outer membrane protein A (domain or fragment)” was tested. Which Kd [2] did it give?
**A.** The Kd was 25 nM.
